± gives the standard error. Fewer inactive variants are shown than the library holds.
B1: glmS ribozyme (parent)
chain: AUAAAAGCGCCAGAACUACAGAAAUGUAGUUGACGAGGAGGAGGUUUAUCGAAUUUUCGGCGGAUGCCUCCAAA

Columns and labels:
Settings in all cases: with glucosamine-6-phosphate
[1] = variants of: B1; assay: self-cleavage kobs at 40 uM GlcN6P; higher = faster cleavage; RNA array
Outline: (§1)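 Tiles bearing barcoded ribozyme variants, transcribed in situ by E. coli RNA polymerase on sequenced MiSeq chips, were imaged over ~14 h at 37 °C using a hybridised Cy3 probe. Glucosamine-6-phosphate was supplied at 40 μM to 10 mM in HEPES/KCl/Mg(OAc)2 buffer. kobs came from one- or two-exponential decay fits to normalised per-tile medians, and weighted Michaelis–Menten fits then provided kcat and KM.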

[2] = variants of: B1; assay: self-cleavage kobs at 160 uM GlcN6P; higher = faster cleavage; RNA array
Outline: as §1

[3] = variants of: B1; assay: self-cleavage kobs at 640 uM GlcN6P; higher = faster cleavage; RNA array
Outline: as §1

[4] = variants of: B1; assay: self-cleavage kobs at 2500 uM GlcN6P; higher = faster cleavage; RNA array
Outline: as §1

[5] = variants of: B1; assay: self-cleavage kobs at 10000 uM GlcN6P; higher = faster cleavage; RNA array
Outline: as §1

A14C C71U
self-cleavage kobs at 40 uM GlcN6P [1]: 0.000147 ± 1.3e-05 s⁻¹ | self-cleavage kobs at 160 uM GlcN6P [2]: 0.000353 ± 3.7e-05 s⁻¹ | self-cleavage kobs at 640 uM GlcN6P [3]: 0.000938 ± 9.2e-05 s⁻¹ | self-cleavage kobs at 2500 uM GlcN6P [4]: 0.00483 ± 0.00086 s⁻¹ | self-cleavage kobs at 10000 uM GlcN6P [5]: 0.00794 ± 0.00094 s⁻¹

C8A G35C A48C G60A
self-cleavage kobs at 40 uM GlcN6P [1]: < 1e-05 s⁻¹

A6U C11G U46G C68A
self-cleavage kobs at 40 uM GlcN6P [1]: < 1e-05 s⁻¹ | self-cleavage kobs at 640 uM GlcN6P [3]: < 1e-05 s⁻¹ | self-cleavage kobs at 2500 uM GlcN6P [4]: < 1e-05 s⁻¹

G40U G44U
self-cleavage kobs at 40 uM GlcN6P [1]: < 1e-05 s⁻¹ | self-cleavage kobs at 160 uM GlcN6P [2]: < 1e-05 s⁻¹ | self-cleavage kobs at 640 uM GlcN6P [3]: < 1e-05 s⁻¹

C8A A48C G59U
self-cleavage kobs at 40 uM GlcN6P [1]: < 1e-05 s⁻¹ | self-cleavage kobs at 10000 uM GlcN6P [5]: < 1e-05 s⁻¹

C16A C34A
self-cleavage kobs at 40 uM GlcN6P [1]: < 1e-05 s⁻¹ | self-cleavage kobs at 160 uM GlcN6P [2]: < 1e-05 s⁻¹ | self-cleavage kobs at 640 uM GlcN6P [3]: < 1e-05 s⁻¹ | self-cleavage kobs at 2500 uM GlcN6P [4]: < 1e-05 s⁻¹ | self-cleavage kobs at 10000 uM GlcN6P [5]: < 1e-05 s⁻¹

G40U U55G
self-cleavage kobs at 40 uM GlcN6P [1]: 0.000102 ± 1.4e-05 s⁻¹ | self-cleavage kobs at 160 uM GlcN6P [2]: 0.000149 ± 2.2e-05 s⁻¹ | self-cleavage kobs at 640 uM GlcN6P [3]: 0.000543 ± 9.9e-05 s⁻¹ | self-cleavage kobs at 2500 uM GlcN6P [4]: 0.00142 ± 0.00023 s⁻¹ | self-cleavage kobs at 10000 uM GlcN6P [5]: 0.00228 ± 0.00046 s⁻¹

A14G C34U C50G C68G
self-cleavage kobs at 40 uM GlcN6P [1]: 7.72e-05 ± 1.6e-05 s⁻¹

C11U U47A A52C
self-cleavage kobs at 40 uM GlcN6P [1]: < 1e-05 s⁻¹

C16G C34A
self-cleavage kobs at 40 uM GlcN6P [1]: < 1e-05 s⁻¹ | self-cleavage kobs at 640 uM GlcN6P [3]: < 1e-05 s⁻¹ | self-cleavage kobs at 10000 uM GlcN6P [5]: < 1e-05 s⁻¹

G29C U30G U31A C50U
self-cleavage kobs at 40 uM GlcN6P [1]: < 1e-05 s⁻¹ | self-cleavage kobs at 640 uM GlcN6P [3]: < 1e-05 s⁻¹

A6U G32C
self-cleavage kobs at 40 uM GlcN6P [1]: < 1e-05 s⁻¹ | self-cleavage kobs at 160 uM GlcN6P [2]: < 1e-05 s⁻¹ | self-cleavage kobs at 640 uM GlcN6P [3]: < 1e-05 s⁻¹ | self-cleavage kobs at 2500 uM GlcN6P [4]: < 1e-05 s⁻¹

G9U A14C A52C
self-cleavage kobs at 40 uM GlcN6P [1]: < 1e-05 s⁻¹ | self-cleavage kobs at 2500 uM GlcN6P [4]: < 1e-05 s⁻¹ | self-cleavage kobs at 10000 uM GlcN6P [5]: < 1e-05 s⁻¹

G29C C50G
self-cleavage kobs at 40 uM GlcN6P [1]: 5.44e-05 ± 1.3e-05 s⁻¹ | self-cleavage kobs at 160 uM GlcN6P [2]: 0.000194 ± 5.9e-05 s⁻¹ | self-cleavage kobs at 640 uM GlcN6P [3]: 0.000208 ± 4.9e-05 s⁻¹ | self-cleavage kobs at 2500 uM GlcN6P [4]: 0.000178 ± 3.6e-05 s⁻¹ | self-cleavage kobs at 10000 uM GlcN6P [5]: 2.54e-05 ± 1.1e-05 s⁻¹

C8G G13U
self-cleavage kobs at 40 uM GlcN6P [1]: < 1e-05 s⁻¹ | self-cleavage kobs at 160 uM GlcN6P [2]: < 1e-05 s⁻¹ | self-cleavage kobs at 640 uM GlcN6P [3]: < 1e-05 s⁻¹ | self-cleavage kobs at 2500 uM GlcN6P [4]: < 1e-05 s⁻¹ | self-cleavage kobs at 10000 uM GlcN6P [5]: < 1e-05 s⁻¹

C11U U30A A48G G59C A64G
self-cleavage kobs at 40 uM GlcN6P [1]: < 1e-05 s⁻¹ | self-cleavage kobs at 2500 uM GlcN6P [4]: < 1e-05 s⁻¹ | self-cleavage kobs at 10000 uM GlcN6P [5]: < 1e-05 s⁻¹

C10U G35U A39U A48G
self-cleavage kobs at 40 uM GlcN6P [1]: < 1e-05 s⁻¹ | self-cleavage kobs at 160 uM GlcN6P [2]: < 1e-05 s⁻¹ | self-cleavage kobs at 640 uM GlcN6P [3]: < 1e-05 s⁻¹ | self-cleavage kobs at 2500 uM GlcN6P [4]: < 1e-05 s⁻¹ | self-cleavage kobs at 10000 uM GlcN6P [5]: < 1e-05 s⁻¹

G35A G44U U49A
self-cleavage kobs at 40 uM GlcN6P [1]: < 1e-05 s⁻¹

C50G C58A C68G C71U
self-cleavage kobs at 40 uM GlcN6P [1]: 9.15e-05 ± 1.8e-05 s⁻¹ | self-cleavage kobs at 10000 uM GlcN6P [5]: 0.00024 ± 5.2e-05 s⁻¹

G29A C34A G40U G41C G44U U49G C50A C71U
self-cleavage kobs at 40 uM GlcN6P [1]: < 1e-05 s⁻¹ | self-cleavage kobs at 10000 uM GlcN6P [5]: < 1e-05 s⁻¹

A6C C67G
self-cleavage kobs at 40 uM GlcN6P [1]: < 1e-05 s⁻¹

A6U U49C
self-cleavage kobs at 40 uM GlcN6P [1]: < 1e-05 s⁻¹ | self-cleavage kobs at 160 uM GlcN6P [2]: < 1e-05 s⁻¹ | self-cleavage kobs at 2500 uM GlcN6P [4]: < 1e-05 s⁻¹ | self-cleavage kobs at 10000 uM GlcN6P [5]: < 1e-05 s⁻¹

G32A G40U C67G
self-cleavage kobs at 40 uM GlcN6P [1]: < 1e-05 s⁻¹ | self-cleavage kobs at 640 uM GlcN6P [3]: < 1e-05 s⁻¹ | self-cleavage kobs at 2500 uM GlcN6P [4]: < 1e-05 s⁻¹

G40A U69A
self-cleavage kobs at 40 uM GlcN6P [1]: < 1e-05 s⁻¹ | self-cleavage kobs at 640 uM GlcN6P [3]: < 1e-05 s⁻¹ | self-cleavage kobs at 2500 uM GlcN6P [4]: < 1e-05 s⁻¹ | self-cleavage kobs at 10000 uM GlcN6P [5]: < 1e-05 s⁻¹

C11U C50G
self-cleavage kobs at 40 uM GlcN6P [1]: 0.000107 ± 2.2e-05 s⁻¹ | self-cleavage kobs at 160 uM GlcN6P [2]: 0.000271 ± 6.5e-05 s⁻¹ | self-cleavage kobs at 640 uM GlcN6P [3]: 0.000371 ± 9e-05 s⁻¹ | self-cleavage kobs at 2500 uM GlcN6P [4]: 0.000104 ± 2.1e-05 s⁻¹

A12G G32C G37U C71G
self-cleavage kobs at 40 uM GlcN6P [1]: < 1e-05 s⁻¹

G41A G59U
self-cleavage kobs at 40 uM GlcN6P [1]: < 1e-05 s⁻¹ | self-cleavage kobs at 640 uM GlcN6P [3]: < 1e-05 s⁻¹ | self-cleavage kobs at 10000 uM GlcN6P [5]: < 1e-05 s⁻¹

G9U G40C
self-cleavage kobs at 40 uM GlcN6P [1]: < 1e-05 s⁻¹ | self-cleavage kobs at 160 uM GlcN6P [2]: < 1e-05 s⁻¹ | self-cleavage kobs at 640 uM GlcN6P [3]: < 1e-05 s⁻¹ | self-cleavage kobs at 10000 uM GlcN6P [5]: < 1e-05 s⁻¹

U46A A52U
self-cleavage kobs at 40 uM GlcN6P [1]: < 1e-05 s⁻¹ | self-cleavage kobs at 160 uM GlcN6P [2]: < 1e-05 s⁻¹

C10U G44U U45A G59C C67G
self-cleavage kobs at 40 uM GlcN6P [1]: < 1e-05 s⁻¹ | self-cleavage kobs at 10000 uM GlcN6P [5]: < 1e-05 s⁻¹

U55A U56G
self-cleavage kobs at 40 uM GlcN6P [1]: 0.000292 ± 4.8e-05 s⁻¹ | self-cleavage kobs at 160 uM GlcN6P [2]: 0.000454 ± 8.8e-05 s⁻¹ | self-cleavage kobs at 640 uM GlcN6P [3]: 0.00368 ± 0.00046 s⁻¹ | self-cleavage kobs at 2500 uM GlcN6P [4]: 0.00771 ± 0.0013 s⁻¹ | self-cleavage kobs at 10000 uM GlcN6P [5]: 0.0097 ± 0.0019 s⁻¹

C8U G59A
self-cleavage kobs at 40 uM GlcN6P [1]: < 1e-05 s⁻¹ | self-cleavage kobs at 160 uM GlcN6P [2]: < 1e-05 s⁻¹ | self-cleavage kobs at 640 uM GlcN6P [3]: < 1e-05 s⁻¹ | self-cleavage kobs at 10000 uM GlcN6P [5]: < 1e-05 s⁻¹

C50G U65A
self-cleavage kobs at 40 uM GlcN6P [1]: 6.61e-05 ± 1.9e-05 s⁻¹ | self-cleavage kobs at 160 uM GlcN6P [2]: 6.9e-05 ± 3e-05 s⁻¹ | self-cleavage kobs at 640 uM GlcN6P [3]: 0.00136 ± 0.00038 s⁻¹ | self-cleavage kobs at 2500 uM GlcN6P [4]: 0.000972 ± 0.00037 s⁻¹

A39U G62U
self-cleavage kobs at 40 uM GlcN6P [1]: < 1e-05 s⁻¹ | self-cleavage kobs at 10000 uM GlcN6P [5]: < 1e-05 s⁻¹

U30C G43C
self-cleavage kobs at 40 uM GlcN6P [1]: < 1e-05 s⁻¹ | self-cleavage kobs at 160 uM GlcN6P [2]: < 1e-05 s⁻¹ | self-cleavage kobs at 640 uM GlcN6P [3]: < 1e-05 s⁻¹ | self-cleavage kobs at 2500 uM GlcN6P [4]: < 1e-05 s⁻¹ | self-cleavage kobs at 10000 uM GlcN6P [5]: < 1e-05 s⁻¹

C58U G59C
self-cleavage kobs at 40 uM GlcN6P [1]: < 1e-05 s⁻¹

C16A G44C C50A
self-cleavage kobs at 40 uM GlcN6P [1]: < 1e-05 s⁻¹ | self-cleavage kobs at 10000 uM GlcN6P [5]: < 1e-05 s⁻¹

G29C A42C
self-cleavage kobs at 40 uM GlcN6P [1]: < 1e-05 s⁻¹ | self-cleavage kobs at 640 uM GlcN6P [3]: < 1e-05 s⁻¹ | self-cleavage kobs at 2500 uM GlcN6P [4]: < 1e-05 s⁻¹ | self-cleavage kobs at 10000 uM GlcN6P [5]: < 1e-05 s⁻¹

G9C G66A
self-cleavage kobs at 40 uM GlcN6P [1]: < 1e-05 s⁻¹ | self-cleavage kobs at 640 uM GlcN6P [3]: < 1e-05 s⁻¹ | self-cleavage kobs at 10000 uM GlcN6P [5]: < 1e-05 s⁻¹

G32A G43C
self-cleavage kobs at 40 uM GlcN6P [1]: < 1e-05 s⁻¹ | self-cleavage kobs at 160 uM GlcN6P [2]: < 1e-05 s⁻¹ | self-cleavage kobs at 2500 uM GlcN6P [4]: < 1e-05 s⁻¹

A36G C50G
self-cleavage kobs at 40 uM GlcN6P [1]: 3.66e-05 ± 1.5e-05 s⁻¹

U31A G43U
self-cleavage kobs at 40 uM GlcN6P [1]: < 1e-05 s⁻¹ | self-cleavage kobs at 160 uM GlcN6P [2]: < 1e-05 s⁻¹

C11G A48G
self-cleavage kobs at 40 uM GlcN6P [1]: < 1e-05 s⁻¹ | self-cleavage kobs at 160 uM GlcN6P [2]: < 1e-05 s⁻¹ | self-cleavage kobs at 640 uM GlcN6P [3]: < 1e-05 s⁻¹ | self-cleavage kobs at 2500 uM GlcN6P [4]: < 1e-05 s⁻¹ | self-cleavage kobs at 10000 uM GlcN6P [5]: < 1e-05 s⁻¹
